Measured values published in paper PMC7541710.

Biological target: MR1-restricted antigen synthesized by S. Typhimurium and highly abundant in that microbe peptide on MR1 (human)
Experiment: T cell clone or line
[1] = chains alpha TRAV1-2 TRAJ33 CDR3:beta TRBV3-1 TRBJ2-2 CDR3

B1: 571F3-2 (peptide)
chain 1: CAVRDSNYQLI
chain 2: CASSEASGGTDTQY
geometric MFI (chains alpha TRAV1-2 TRAJ33 CDR3:beta TRBV6-4 TRBJ2-3 CDR3): 2760

B2: D0033A2 (peptide)
chain 1: CAVTDSNYQLI
chain 2: CASSQAETELNTGELF
geometric MFI [1]: 2480

B3: 427D8-2 (peptide)
chain 1: CAVMDSNYQLI
chain 2: CASSLLRQGTEKLF
geometric MFI (chains alpha TRAV1-2 TRAJ33 CDR3:beta TRBV5-1 TRBJ1-4 CDR3): 3440

B4: D0033A10 (peptide)
chain 1: CAVTDSNYQLI
chain 2: CASSSGLEVTGELF
geometric MFI [1]: 2130

B5: 403A9 (peptide)
chain 1: CAVVDSNYQLI
chain 2: CSARDGGEAYNEQF
geometric MFI (chains alpha TRAV1-2 TRAJ33 CDR3:beta TRBV20-1 TRBJ2-1 CDR3): 1600

B6: 450B9 (peptide)
chain 1: CAVMDSNYQLI
chain 2: CASTPSGEFSEAF
geometric MFI (chains alpha TRAV1-2 TRAJ33 CDR3:beta TRBV6-1 TRBJ1-1 CDR3): 2520

B7: D0033A6 (peptide)
chain 1: CAVVDSNYQLI
chain 2: CASSHSSGTGGNEQF
geometric MFI (chains alpha TRAV1-2 TRAJ33 CDR3:beta TRBV4-2 TRBJ2-1 CDR3): 2620

B8: 450A9 (peptide)
chain 1: CAVRDSNYQLI
chain 2: CSAREVEGTYEQY
geometric MFI (chains alpha TRAV1-2 TRAJ33 CDR3:beta TRBV20-1 TRBJ2-7 CDR3): 2030
